Measurements as given in article PMC5841405 (2018).
Positions count from the first letter of the chain named. In names and notes the source's numbering stands. Where two headings read alike, the source gives them in different places.

T1: BICD2_(1–98) (human, UniProt Q8TD16-1 1-98)
T1 chain: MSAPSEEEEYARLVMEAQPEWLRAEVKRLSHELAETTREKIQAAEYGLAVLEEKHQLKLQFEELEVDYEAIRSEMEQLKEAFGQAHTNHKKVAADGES

T2: Spindly_(1–142) (human, UniProt Q96EA4-1 1-142)
T2 chain: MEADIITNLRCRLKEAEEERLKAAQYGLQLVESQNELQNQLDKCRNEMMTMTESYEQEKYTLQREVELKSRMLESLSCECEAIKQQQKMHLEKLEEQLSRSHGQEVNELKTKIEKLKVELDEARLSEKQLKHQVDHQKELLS

B1: Hook3_(1–160)A138D (domain or fragment)
chain: MFSVESLERAELCESLLTWIQTFNVDAPCQTVEDLTNGVVMAQVLQKIDPAYFDENWLNRIKTEVGDNWRLKISNLKKILKGILDYNHEILGQQINDFTLPDVNLIGEHSDAAELGRMLQLILGCAVNCEQKQEYIQDIMMMEESVQHVVMTAIQELMSK
B2: Hook3_(1–160) (domain or fragment)
chain: B1 chain with D138A
B3: LIC1_(433–458) (peptide)
chain: NMKAGATSEGVLANFFNSLLSKKTGS

Key:
MBP-LIC1FL [1] = molecular target: MBP-LIC1FL (human); experiment: ITC
MBP-LIC1FL [2] = molecular target: MBP-LIC1FL (human); experiment: ITC; remark: listed apart in the source
BICD2_(1–98) [3] = molecular target: T1, BICD2_(1–98); experiment: ITC; first site (KD1), 30°C
Spindly_(1–142) [4] = molecular target: T2, Spindly_(1–142); experiment: ITC; first site (KD1)
Spindly_(1–142) [5] = molecular target: T2, Spindly_(1–142); experiment: ITC; second site (KD2)
Hook3_(1–160) = molecular target: B2; experiment: ITC
BICD2_(1–98) [6] = molecular target: T1, BICD2_(1–98); experiment: ITC; second site (KD2), 30°C

MBP-LIC1FL (human), sequence (chain, as listed by the source): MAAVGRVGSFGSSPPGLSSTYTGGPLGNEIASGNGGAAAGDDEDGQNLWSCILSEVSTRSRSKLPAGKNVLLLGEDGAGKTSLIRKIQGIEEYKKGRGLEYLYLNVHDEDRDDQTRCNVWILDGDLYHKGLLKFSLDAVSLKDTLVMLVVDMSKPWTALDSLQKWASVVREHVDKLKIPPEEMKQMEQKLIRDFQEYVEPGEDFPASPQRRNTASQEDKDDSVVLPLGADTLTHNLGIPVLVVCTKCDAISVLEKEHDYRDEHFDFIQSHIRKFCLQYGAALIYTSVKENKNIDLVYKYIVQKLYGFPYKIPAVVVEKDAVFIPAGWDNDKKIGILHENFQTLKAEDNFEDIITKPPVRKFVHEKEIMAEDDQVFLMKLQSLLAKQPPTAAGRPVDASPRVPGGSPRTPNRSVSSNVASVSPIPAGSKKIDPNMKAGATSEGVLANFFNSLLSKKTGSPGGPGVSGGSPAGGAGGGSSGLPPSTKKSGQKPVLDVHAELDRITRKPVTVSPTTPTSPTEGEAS

Binder: B1
Kd (MBP-LIC1FL [1]): 8.1 µM

Binder: B2
Kd (MBP-LIC1FL [2]): 12.3 µM

Binder: B3
Kd (BICD2_(1–98) [3]): 1500 nM
Kd (Spindly_(1–142) [4]): 3.6 µM
Kd (Spindly_(1–142) [5]): 7.6 µM
Kd (Hook3_(1–160)): 6.3 µM
Kd (BICD2_(1–98) [6]): 7.5 µM
